Consider 5 molecules from patent US20250136687A1 (SHANDONG SIMCERE BIOPHARMACEUTICAL, published 2025).

Where two headings read alike, the source gives them in different places.

For assay [1], the target named is T1, human CD3ε/δ-His (human, UniProt P07766 23-126; P04234 22-105).
T1 construct: Bought recombinant heterodimer with His tag; also called human CD3ε/δ protein
The experiment in a line: ELISA, coated antigen. How it is done:
(§1) To detect the binding activity of the humanized antibodies to CD3 protein, CD3 protein was diluted with PBS to the final concentration of […], then added to a 96-well ELISA plate at 50 μL/well, and the plate was sealed with a plastic film, and incubated overnight at 4° C. On the next day, the plate was washed 2 times with PBS, and a blocking solution [PBS+2% (v/v) BSA] was added for blocking at room temperature for 2 h. The blocking solution was poured off, and the antibody (initial concentration of 100 nM, and gradient dilution at 1:10) or a negative control antibody was added at 50 µl/well. After incubation at 37° C. for 2 h, the plate was washed 3 times with PBS. […] TMB substrate was added at 50 μl/well, and incubated at room temperature for 10 min, and then a stop solution (1.0 N HCl) was added at 50 μl/well. The OD450 nm values were read by an ELISA microplate reader (Multimode Plate Reader, EnSight, purchased from Perkin Elmer).

Assay [2] has as its target T2, recombinant human CD3ε-ECD His protein (human, UniProt P07766 23-126).
T2 construct: extracellular domain; also called human CD3ε-His; CD3ε antigen protein; not shown: His tag
The experiment in a line: ELISA, coated antigen. How it is done:
as §1
Background: ELISA stands for enzyme-linked immunosorbent assay.

The next assay concerns the target T3, monkey CD3ε/δ-His (monkey, UniProt Q95LI5 22-117; Q95LI8 22-105).
T3 construct: Bought recombinant heterodimer with His tag
The experiment in a line: ELISA, coated antigen. The procedure: as §1
(§2) To detect the binding activity of the humanized antibodies to monkey CD3 protein, CD3 protein was diluted with PBS to the final concentration of […], and then added to a 96-well ELISA plate at 50 μl/well.

The next assay addresses T4, monkey CD3ε protein (monkey, UniProt Q95LI5 22-117, limits assumed).
T4 sequence (looked up): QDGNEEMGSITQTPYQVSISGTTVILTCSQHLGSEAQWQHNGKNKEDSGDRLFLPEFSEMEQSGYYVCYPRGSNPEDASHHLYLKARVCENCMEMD
The experiment in a line: ELISA, coated antigen. How it is done: as §1, §2

Assay [3] deals with T5, human CD3 on the cell surface (Jurkat cells, expanded human T cells, Jurkat-Lucia NFAT cells, human PBMC) (human, UniProt P07766 23-207; P04234 22-171; P09693 23-182).
T5 construct: whole, on cells; Endogenous CD3 within the TCR-CD3 complex on cells (also zeta chains and TCR); the cell type is named under assay
T5 sequence (P07766 23-207, chain 1 of 3): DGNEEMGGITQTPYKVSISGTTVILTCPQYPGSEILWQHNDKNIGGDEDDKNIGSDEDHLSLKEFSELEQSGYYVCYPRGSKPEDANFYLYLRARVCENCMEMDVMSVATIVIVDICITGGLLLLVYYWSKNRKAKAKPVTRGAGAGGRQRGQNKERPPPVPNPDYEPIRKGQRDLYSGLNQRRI
T5 sequence (P04234 22-171, chain 2 of 3): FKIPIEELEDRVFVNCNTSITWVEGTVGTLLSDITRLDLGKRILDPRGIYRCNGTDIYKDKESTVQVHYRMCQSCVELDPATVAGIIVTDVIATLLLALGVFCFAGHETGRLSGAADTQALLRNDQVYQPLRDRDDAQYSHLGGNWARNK
T5 sequence (P09693 23-182, chain 3 of 3): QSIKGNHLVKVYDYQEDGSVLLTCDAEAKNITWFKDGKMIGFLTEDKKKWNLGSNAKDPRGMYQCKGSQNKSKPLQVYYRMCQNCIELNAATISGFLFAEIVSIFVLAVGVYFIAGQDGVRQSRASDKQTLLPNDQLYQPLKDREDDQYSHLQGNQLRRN
The experiment in a line: FACS, expanded human T cells. The procedure: (§3) The binding of the chimeric antibodies to CD3 on the cell surface was analyzed by detecting the binding of the antibodies to Jurkat cells and human T cells. Suspension cells Jurkat cells were scale-up cultured in T-75 cell culture flasks to the logarithmic growth phase, the supernatant of the medium was discarded by centrifugation, and the cell pellet was washed 2 times with PBS for later use. The expanded human T cells were washed 2 times with PBS for later use. After counting the cells in the previous step, the cell pellet was resuspended with [PBS+2% (w/w) BSA] blocking solution to 4×10⁶ cells/ml, and added to a 96-well FACS reaction plate at 50 μl/well, and then the chimeric antibody to be tested was added at 50 μl/well, and incubated at 4° C. for 1 h. The cells were centrifuged and washed 3 times with a PBS buffer. […] The cells were centrifuged and washed 5 times with PBS, and FACS (FACS Canto™, purchased from BD Company) was used for detection and result analysis. Data analysis was performed by software (CellQuest) to obtain the mean fluorescence […] (MFI) of the cells. And then software (GraphPad Prism8) was used for analysis, data fitting, and EC50 value calculation. The same method was used to simultaneously detect the binding of the chimeric antibodies to endogenous CD3 negative cells MOLT4 cells.
The expanded human PBMC cells were collected, and FACS detection and data analysis were performed according to the method in Example 5.1.

Assay [4] has as its target T6, cynomolgus monkey CD3 on the surface of expanded monkey T cells (cynomolgus monkey, UniProt Q95LI5 22-198; Q95LI8 22-171; Q95LI7 23-181).
T6 construct: whole, on cells; Endogenous CD3 within the TCR-CD3 complex on T cells expanded from cynomolgus monkey PBMC
The experiment in a line: FACS, expanded monkey T cells. The procedure:
as §3
The expanded monkey T cells were collected, and FACS detection and data analysis were performed according to the method in Example 5.1.

The target of assay [5] is T1, human CD3ε/δ-His. The experiment in a line: SPR, antibody captured on Protein A chip. The procedure: (§4) Running buffer was HBS-EP+(10 mM HEPES, 150 mM NaCl, 3 mM EDTA, 0.05% surfactant P20) (GE Healthcare; BR-1006-69). The flow-through cell was set to 25° C. The sample block was set to 16° C. Both were pretreated with the running buffer. In each cycle, an antibody to be detected was first captured with a Protein A chip, and then a single concentration of CD3ε antigen protein was injected. The binding and dissociation processes of the antibody and the antigen protein were recorded, and finally Glycine pH 1.5 (GE Healthcare; BR-1003-54) was used to complete chip regeneration. The binding was measured by injecting different concentrations of recombinant human CD3ε proteins in a solution for 240 s with a flow rate of 30 μL/min. The concentration started from 200 nM (see the detailed results for the actual concentration in the test) and was diluted at 1:1, making a total of 5 concentrations. The dissociation phase was monitored for up to 600 s and was triggered by switching from sample solution to running buffer. The surface was regenerated by washing with a 10 mM glycine solution (pH 1.5) for 30 s at a flow rate of 30 μL/min. Bulk refractive index difference was corrected by subtracting the response obtained from the goat anti-human Fc surface, and the blank injection was subtracted at the same time (=double reference). For calculation of apparent KD value and other kinetic parameters, Langmuir 1:1 model was used.
(In general: In SPR one partner is held on a chip, and binding of the other changes the refractive index at the surface.)

The target of assay [6] is T2, recombinant human CD3ε-ECD His protein. The experiment in a line: SPR, antibody captured on Protein A chip. How it is done:
as §4

The target in assay [7] is T5, human CD3 on the cell surface (Jurkat …). The experiment in a line: FACS, Jurkat cells. The procedure: as §3
(In flow cytometry, cells or beads pass a laser one at a time.)

Assay [8] has the same target. The experiment in a line: cell-based or functional assay.
Assay [9] has the same target. The experiment in a line: FACS, expanded human T cells. The procedure: as §3
The source holds these as a separate data set.

Assay [10] concerns the target T6, cynomolgus monkey CD3 on the surface of …. The experiment in a line: FACS, expanded monkey T cells. How it is done:
as §3
FACS detection and data analysis were performed on the cryopreserved monkey T cells of Example 2.4 according to the method in Example 5.1.
The source holds these as a separate data set.

T6 sequence (Q95LI5 22-198, chain 1 of 3): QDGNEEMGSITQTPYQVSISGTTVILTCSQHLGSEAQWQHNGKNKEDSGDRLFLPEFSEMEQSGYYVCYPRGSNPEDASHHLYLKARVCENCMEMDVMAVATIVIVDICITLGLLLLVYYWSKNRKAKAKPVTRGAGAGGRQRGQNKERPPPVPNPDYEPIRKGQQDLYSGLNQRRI
T6 sequence (Q95LI8 22-171, chain 2 of 3): as the sequence (P04234 22-171, chain 2 of 3) above, with I5V, N15K, I20V, S32T, D33N, I34N, T64A, S74N, V83L, H141R counted along it
T6 sequence (Q95LI7 23-181, chain 3 of 3): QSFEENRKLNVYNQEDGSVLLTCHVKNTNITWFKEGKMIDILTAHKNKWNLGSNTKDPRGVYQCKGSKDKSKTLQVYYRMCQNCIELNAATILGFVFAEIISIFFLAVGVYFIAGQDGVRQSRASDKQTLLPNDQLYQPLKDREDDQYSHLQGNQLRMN
T2 sequence (P07766 23-126): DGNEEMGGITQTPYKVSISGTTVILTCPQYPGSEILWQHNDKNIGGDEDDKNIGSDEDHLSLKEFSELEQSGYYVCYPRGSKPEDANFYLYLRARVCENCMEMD
T1 sequence (P07766 23-126, stated change not applied, form in doubt, chain 1 of 2): as the sequence (P07766 23-126) above
T1 sequence (P04234 22-105, stated change not applied, form in doubt, chain 2 of 2): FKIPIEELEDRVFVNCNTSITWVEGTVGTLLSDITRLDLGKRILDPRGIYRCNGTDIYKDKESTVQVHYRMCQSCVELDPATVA
T3 sequence (Q95LI8 22-105, stated change not applied, form in doubt, chain 2 of 2, one chain of several): as the sequence (P04234 22-105, stated change not applied, form in doubt, chain 2 of 2) above, with I5V, N15K, I20V, S32T, D33N, I34N, T64A, S74N, V83L counted along it

B1: 8-18.1-H1-L2 humanized antibody (antibody, human IgG1, kappa, V domains shown)
VH: EVQLVQSGAEVKKPGASVKVSCKASGYTFTMNTMHWVRQAPGQRLEWMGYINPYSGYTKYNQIFKDRVTITADKSASTAYMELSSLRSEDTAVYYCLRGGEGVWGQGTTVTVSS
VL: DVVMTQSPLSLPVTLGQPASISCKSSQSLLDSDGKTYLNWLQQRPGQSPRRLIYLVSELGSGVPDRFSGSGSGTDFTLKISRVEAEDVGVYYCWQGTHFPRTFGGGTKVEIKR
A word on the EC50: it is the concentration needed to bring the measured effect to its halfway point. In general, Kd refers to the constant that tells how readily two partners part at equilibrium. In general, koff refers to a measure of how fast the partners let go of each other. As usually defined, the kon is the second-order rate constant of association. In the case of B1, the EC50 with human CD3ε/δ-His [1] is 0.22 nM; in [2], 0.0363 nM; in the assay with monkey CD3ε/δ-His, 0.0193 nM; with monkey CD3ε protein it was 4.75 pM; in assay [3], 7.05 nM; in assay [4], 2.84 nM. In addition, the max-OD450 in the assay with human CD3ε/δ-His [1] is 3.16 OD450; in assay [2] it was 3.11 OD450; with monkey CD3ε/δ-His it was 3.16 OD450; in the assay with monkey CD3ε protein it was 3.1 OD450. In addition, the max_MFI in [3] stood at 11500 MFI; in [4], 11800 MFI. Also, the dissociation constant (Kd) came out at 67.4 nM with human CD3ε/δ-His [5] and 0.908 nM in assay [6]. The koff amounted to 0.0317 s⁻¹ with human CD3ε/δ-His [5] and 0.000249 s⁻¹ in assay [6]. For the same molecule, the kon worked out at 469000 M⁻¹ s⁻¹ in the assay with human CD3ε/δ-His [5] and 274000 M⁻¹ s⁻¹ in assay [6].

B2: 6-35.22-H1-L1 humanized antibody (antibody, human IgG1, kappa, V domains shown)
VH: EVQLVESGGGVVQPGRSLRLSCAASGFTFTDYYMSWVRQAPGKGLEWVAMSRNKAKGHTIEYSSSVKGRFTISRDNSKNTLYLQMNSLRAEDTAVYYCARDTYESYDGYFDVWGQGTTVTVSS
VL: DIVMTQSPDSLAVSLGERATINCKSSQSLFNSRSRKNYLAWYQQKPGQTPKLLIYWASIRESGVPDRFSGSGSGTDFTLTISSLQAEDVAVYYCKQSYYLYTFGQGTKLEIKR
Consider B2, for which the EC50 with human CD3ε/δ-His [1] is 0.53 nM; in [2] it was 0.0337 nM; in assay [3], 49.7 nM. Moreover, the max-OD450 in the assay with human CD3ε/δ-His [1] is 2.93 OD450; in assay [2], 3.1 OD450. The molecule also gave a max_MFI in assay [3] of 11300 MFI.

B3: 6-35.22 human-murine chimeric antibody (antibody, human IgG1, kappa, V domains shown)
VH: EVKLVESGGGLVQPGASLSLSCAASGFTFTDYYMSWVRQPPGKALEWLAMSRNKAKGHTIEYSSSVKGRFTISRDNSQSILYLQMNALRAEDSATYYCARDTYESYDGYFDVWGAGTTVIVSS
VL: DIVMSQSPSSLAVSAGETVTMSCKSSQSLFNSRSRKNYLAWYQQKPGQTPKLLIYWASIRESGVPDRFTGSGSGTDFTLTISSVQAEDLAVYYCKQSYYLYTFGSGTKLEIKR
notes: Human IgG1 chimera
In assay [7], B3 gave an EC50 of 8.3 nM and an MFI_Max of 26700 MFI. Also, in assay [8], the “EC50 (nM), luciferase reporter, Jurkat-Lucia NFAT cells” value turned out to be 0.82 nM and the “Maximum response value (RLU)” value came out at 27000 RLU. Further, in assay [9], the EC50 was 3.62 nM and the MFI_Max worked out at 8900 MFI. In assay [10], this molecule showed an EC50 of 4.18 nM and an MFI_Max of 18200 MFI.

B4: 5-7.13-H1a-L2 humanized antibody (antibody, human IgG1, kappa, V domains shown)
VH: EVQLVQSGAEVKKPGASVKVSCKASGYTFTSYWVHWVRQAPGQRLEWMGNINPSDGVTNYNEKFKSRVTITVDKSASTAYMELSSLRSEDTAVYYCTRDAYGQYYFDNWGQGTTVTVSS
VL: DIVMTQTPLSLPVTPGEPASISCKSSQSLLNSRTRKNYLAWYLQKPGQSPQLLIYWASVRDSGVPDRFSGSGSGTDFTLKISRVEAEDVGVYYCIQSYYLRTFGGGTKVEIKR
Turning to B4, the EC50 came out at 0.19 nM with human CD3ε/δ-His [1]; 0.0206 nM in assay [2]; 0.00332 nM with monkey CD3ε/δ-His; 2.63 pM in the assay with monkey CD3ε protein; 1.52 nM in assay [3]; 0.92 nM in assay [4]. Further, the max-OD450 was 3.01 OD450 in the assay with human CD3ε/δ-His [1], 3.16 OD450 in assay [2], 3.08 OD450 in the assay with monkey CD3ε/δ-His and 2.99 OD450 in the assay with monkey CD3ε protein. Moreover, the figures for the max_MFI in [3] and in assay [4] were 35900 MFI and 25400 MFI, respectively. Moreover, the Kd in the assay with human CD3ε/δ-His [5] turned out to be 27.4 nM; in [6], 0.806 nM. Besides, the results for the koff (with human CD3ε/δ-His [5]; in [6]) were 0.00983 s⁻¹ and 0.000214 s⁻¹, respectively. Further, the kon amounted to 358000 M⁻¹ s⁻¹ in the assay with human CD3ε/δ-His [5] and 266000 M⁻¹ s⁻¹ in assay [6].

B5: 7-35.6-H2-L3 humanized antibody (antibody, human IgG1, lambda, V domains shown)
VH: EVQLVESGGGLVQPGGSLKLSCAASGFTFNTYAMNWVRQASGKGLEWVGRIRSKINNYATYYGDSVKDRFTISRDDSKNTFYLQMNSLKTEDTAVYYCVIHENYGSISWFAYWGQGTLVTVSS
VL: ETVVTQEPSLTVSPGGTVTLTCRSSTGAVTTSNYANWVQQKPGQAFTGLIGGTNNRAPWTPARFSGSLLGGKAALTLSGVQPEDEAEYYCALWYSNHWVFGGGTKLTVLG
On to B5, for which the EC50 was found to be 0.32 nM with human CD3ε/δ-His [1]; 0.0395 nM in assay [2]; 0.0552 nM in the assay with monkey CD3ε/δ-His; 8.59 pM with monkey CD3ε protein; 9.45 nM in assay [3]; 7.84 nM in assay [4]. Further, the max-OD450 with human CD3ε/δ-His [1] came to 3.15 OD450; in assay [2] it was 3.12 OD450; in the assay with monkey CD3ε/δ-His, 3.13 OD450; with monkey CD3ε protein it was 3.01 OD450. Further, the max_MFI worked out at 10000 MFI in assay [3] and 10200 MFI in [4]. Also, the Kd was 145 nM with human CD3ε/δ-His [5] and 1.29 nM in assay [6]. The koff with human CD3ε/δ-His [5] was 0.0335 s⁻¹; in assay [6], 0.000369 s⁻¹. For the same molecule, the kon in the assay with human CD3ε/δ-His [5] was 231000 M⁻¹ s⁻¹; in assay [6], 286000 M⁻¹ s⁻¹.
